The values below come from paper PMC2408619.

For assay [1], the target named is Biotinylated Prn-E (pertactin residues 38-640 with N-terminal biotinylation sequence) (B. bronchiseptica) (UniProt Q03035). Description: SPR; Biacore 3000, 25 °C; ~100 RU biotinylated Prn-E on a streptavidin chip; Mtd proteins injected in 150 mM NaCl, 50 mM Tris pH 8.0, 0.005% Tween 20 at 30 μl/min; single-site model, global fit, six concentrations, duplicate. (SPR reads the build-up and loss of mass on a sensor chip optically.)

Assay [2] addresses His-tagged ectodomain of B. bronchiseptica pertactin (Prn-E; residues 38-640) (B. bronchiseptica) (UniProt Q03035). Description: pull-down; varying concentrations of Mtd incubated with 80 μM His-tagged Prn-E (5 min, 25 °C) before adding Ni2+-NTA beads; apparent Kd of Mtd-M1 estimated against Mtd-P6 with the Langmuir isotherm.
Assay [3] has the same target. Description: not stated; unpublished data; stoichiometry of Mtd-P6 with pertactin.
In assay [4] the target is Biotinylated Prn-E (pertactin residues 38-640 with N-terminal biotinylation sequence) (B. bronchiseptica) (UniProt Q03035). The experiment in a line: SPR. The settings on record: natural protein.
Assay [5] deals with Pertactin (Prn-E) ectodomain (Bordetella bronchiseptica) (UniProt Q03035). The experiment in a line: ITC. To be noted: cited from earlier work.

By kon is commonly meant a measure of how fast the partners come together. A word on the koff: it is the first-order rate constant of dissociation. The low end stands for slow dissociation, the high end for fast dissociation.

Take “Bordetella bacteriophage major tropism determinant variant Mtd-M1 (from UniProt Q775D6 1-381) (natural protein)”: the Kd in assay [1] was above 450 µM; in assay [2] it was 500 µM. In assay [1], “Bordetella bacteriophage major tropism determinant variant Mtd-P6 (from UniProt Q775D6 1-381) (natural protein)” gave a Kd of 5.19 µM and a kon of 10000 M⁻¹ s⁻¹. This substance also displayed a stoichiometry N (Mtd-P6 protomers per pertactin) in assay [3] of 3.

For “Bordetella bacteriophage major tropism determinant variant Mtd-P6 (from UniProt Q775D6 1-381)”, the koff in assay [4] is 0.112 s⁻¹.

Consider Mtd-P1 (from UniProt Q775D6), for which the Kd in assay [5] was 3.04 µM.
